# Measurements published in US20140348819A1, “Methods of Treating Cancer” (Dana-Farber Cancer Institute, Inc., priority 2011, published 2014).
# Tested on: six V600E BRAF melanoma cell lines
# Experiment: Screening of recombinant RTK ligands for ability to confer resistance to BRAFi (PLX4720) or MEKi (PD184352) (Table 4)
# Type: cell-based, human
# Parameters: ability of recombinant RTK ligand to confer resistance / ability of recombinant RTK ligand to confer resistance (screening value): scale not given here
# Procedure, shortened: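 Resistance to BRAFi (PLX4720) or MEKi (PD184352) was tested in six V600E BRAF melanoma lines given one of 22 recombinant RTK ligands. For a subset of RTKs, activation was checked by high-throughput tyrosine kinase phosphorylation profiling and western blot.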
molecule,measurement,setting,value
"BDNF (protein, UniProt P23560 19-247, looked up) Neurotrophic factor BDNF …: APMKEANIRGQGGLAYPGVRTHGTLESVNGPKAGSRGLTSLADTFEHVIEELLDEDQKVRPNEENNKDADLYTSRVMLSSQVPLEPPLLFLLEEYKNYLDAANMSMRVRRHSDPARRGELSVCDSISEWVTAADKKTAVDMSGGTVTVLEKVPVSKGQLKQYFYETKCNPMGYTKEGCRGIDKRHWNSQCRTTQSYVRALTMDSKKRIGWRFIRIDTSCVCTLTIKRGR",ability of recombinant RTK ligand to confer resistance,"A2058, PD184352 - 1 uM, ligand 0.4 ng/ml",0.99
same,ability of recombinant RTK ligand to confer resistance,"A2058, PD184352 - 1 uM, ligand 1.6 ng/ml",0.97
same,ability of recombinant RTK ligand to confer resistance,"A2058, PD184352 - 1 uM, ligand 6.25 ng/ml",0.94
same,ability of recombinant RTK ligand to confer resistance,"A2058, PD184352 - 1 uM, ligand 25 ng/ml",1.03
same,ability of recombinant RTK ligand to confer resistance,"A2058, PD184352 - 1 uM, ligand 100 ng/ml",1.10
same,ability of recombinant RTK ligand to confer resistance,"A2058, PLX4720 - 2 uM, ligand 0.4 ng/ml",1.00
same,ability of recombinant RTK ligand to confer resistance,"A2058, PLX4720 - 2 uM, ligand 1.6 ng/ml",0.95
same,ability of recombinant RTK ligand to confer resistance,"A2058, PLX4720 - 2 uM, ligand 6.25 ng/ml",0.95
same,ability of recombinant RTK ligand to confer resistance,"A2058, PLX4720 - 2 uM, ligand 25 ng/ml",0.98
same,ability of recombinant RTK ligand to confer resistance,"A2058, PLX4720 - 2 uM, ligand 100 ng/ml",1.15
same,ability of recombinant RTK ligand to confer resistance,"C32, PD184352 - 1 uM, ligand 0.4 ng/ml",1.03
same,ability of recombinant RTK ligand to confer resistance,"C32, PD184352 - 1 uM, ligand 1.6 ng/ml",1.01
same,ability of recombinant RTK ligand to confer resistance,"C32, PD184352 - 1 uM, ligand 6.25 ng/ml",1.06
same,ability of recombinant RTK ligand to confer resistance,"C32, PD184352 - 1 uM, ligand 25 ng/ml",1.03
same,ability of recombinant RTK ligand to confer resistance,"C32, PD184352 - 1 uM, ligand 100 ng/ml",0.95
same,ability of recombinant RTK ligand to confer resistance,"C32, PLX4720 - 2 uM, ligand 0.4 ng/ml",1.09
same,ability of recombinant RTK ligand to confer resistance,"C32, PLX4720 - 2 uM, ligand 1.6 ng/ml",0.99
same,ability of recombinant RTK ligand to confer resistance,"C32, PLX4720 - 2 uM, ligand 6.25 ng/ml",1.02
same,ability of recombinant RTK ligand to confer resistance,"C32, PLX4720 - 2 uM, ligand 25 ng/ml",1.01
same,ability of recombinant RTK ligand to confer resistance,"C32, PLX4720 - 2 uM, ligand 100 ng/ml",0.94
same,ability of recombinant RTK ligand to confer resistance,"Colo 829, PD184352 - 1 uM, ligand 0.4 ng/ml",1.03
same,ability of recombinant RTK ligand to confer resistance,"Colo 829, PD184352 - 1 uM, ligand 1.6 ng/ml",0.99
same,ability of recombinant RTK ligand to confer resistance,"Colo 829, PD184352 - 1 uM, ligand 6.25 ng/ml",0.98
same,ability of recombinant RTK ligand to confer resistance,"Colo 829, PD184352 - 1 uM, ligand 25 ng/ml",0.98
same,ability of recombinant RTK ligand to confer resistance,"Colo 829, PD184352 - 1 uM, ligand 100 ng/ml",0.93
same,ability of recombinant RTK ligand to confer resistance,"Colo 829, PLX4720 - 2 uM, ligand 0.4 ng/ml",1.02
same,ability of recombinant RTK ligand to confer resistance,"Colo 829, PLX4720 - 2 uM, ligand 1.6 ng/ml",1.00
same,ability of recombinant RTK ligand to confer resistance,"Colo 829, PLX4720 - 2 uM, ligand 6.25 ng/ml",0.96
same,ability of recombinant RTK ligand to confer resistance,"Colo 829, PLX4720 - 2 uM, ligand 25 ng/ml",0.95
same,ability of recombinant RTK ligand to confer resistance,"Colo 829, PLX4720 - 2 uM, ligand 100 ng/ml",0.94
same,ability of recombinant RTK ligand to confer resistance,"G-361, PD184352 - 1 uM, ligand 0.4 ng/ml",1.09
same,ability of recombinant RTK ligand to confer resistance,"G-361, PD184352 - 1 uM, ligand 1.6 ng/ml",0.95
same,ability of recombinant RTK ligand to confer resistance,"G-361, PD184352 - 1 uM, ligand 6.25 ng/ml",1.03
same,ability of recombinant RTK ligand to confer resistance,"G-361, PD184352 - 1 uM, ligand 25 ng/ml",0.91
same,ability of recombinant RTK ligand to confer resistance,"G-361, PD184352 - 1 uM, ligand 100 ng/ml",0.91
same,ability of recombinant RTK ligand to confer resistance,"G-361, PLX4720 - 2 uM, ligand 0.4 ng/ml",0.98
same,ability of recombinant RTK ligand to confer resistance,"G-361, PLX4720 - 2 uM, ligand 1.6 ng/ml",0.82
same,ability of recombinant RTK ligand to confer resistance,"G-361, PLX4720 - 2 uM, ligand 6.25 ng/ml",1.04
same,ability of recombinant RTK ligand to confer resistance,"G-361, PLX4720 - 2 uM, ligand 25 ng/ml",0.89
same,ability of recombinant RTK ligand to confer resistance,"G-361, PLX4720 - 2 uM, ligand 100 ng/ml",0.87
same,ability of recombinant RTK ligand to confer resistance,"SK-MEL-5, PD184352 - 1 uM, ligand 0.4 ng/ml",1.01
same,ability of recombinant RTK ligand to confer resistance,"SK-MEL-5, PD184352 - 1 uM, ligand 1.6 ng/ml",0.97
same,ability of recombinant RTK ligand to confer resistance,"SK-MEL-5, PD184352 - 1 uM, ligand 6.25 ng/ml",1.01
same,ability of recombinant RTK ligand to confer resistance,"SK-MEL-5, PD184352 - 1 uM, ligand 25 ng/ml",0.96
same,ability of recombinant RTK ligand to confer resistance,"SK-MEL-5, PD184352 - 1 uM, ligand 100 ng/ml",0.97
same,ability of recombinant RTK ligand to confer resistance,"SK-MEL-5, PLX4720 - 2 uM, ligand 0.4 ng/ml",1.07
same,ability of recombinant RTK ligand to confer resistance,"SK-MEL-5, PLX4720 - 2 uM, ligand 1.6 ng/ml",1.02
same,ability of recombinant RTK ligand to confer resistance,"SK-MEL-5, PLX4720 - 2 uM, ligand 6.25 ng/ml",1.07
same,ability of recombinant RTK ligand to confer resistance,"SK-MEL-5, PLX4720 - 2 uM, ligand 25 ng/ml",1.08
same,ability of recombinant RTK ligand to confer resistance,"SK-MEL-5, PLX4720 - 2 uM, ligand 100 ng/ml",1.04
same,ability of recombinant RTK ligand to confer resistance,"SK-MEL-28, PD184352 - 1 uM, ligand 0.4 ng/ml",1.04
same,ability of recombinant RTK ligand to confer resistance,"SK-MEL-28, PD184352 - 1 uM, ligand 1.6 ng/ml",1.04
same,ability of recombinant RTK ligand to confer resistance,"SK-MEL-28, PD184352 - 1 uM, ligand 6.25 ng/ml",0.91
same,ability of recombinant RTK ligand to confer resistance,"SK-MEL-28, PD184352 - 1 uM, ligand 25 ng/ml",0.97
same,ability of recombinant RTK ligand to confer resistance,"SK-MEL-28, PD184352 - 1 uM, ligand 100 ng/ml",1.07
same,ability of recombinant RTK ligand to confer resistance,"SK-MEL-28, PLX4720 - 2 uM, ligand 0.4 ng/ml",0.97
same,ability of recombinant RTK ligand to confer resistance,"SK-MEL-28, PLX4720 - 2 uM, ligand 1.6 ng/ml",1.12
same,ability of recombinant RTK ligand to confer resistance,"SK-MEL-28, PLX4720 - 2 uM, ligand 6.25 ng/ml",0.99
same,ability of recombinant RTK ligand to confer resistance,"SK-MEL-28, PLX4720 - 2 uM, ligand 25 ng/ml",1.08
same,ability of recombinant RTK ligand to confer resistance,"SK-MEL-28, PLX4720 - 2 uM, ligand 100 ng/ml",0.99
